Experiment [1] concerns the target T1, human LILRB4 (human, UniProt Q8NHJ6 22-259, limits assumed).
T1 construct: also called ILT3; LIR5
In words: 'Affinity to human LILRB4'; method not stated in the example.

Experiment [2] addresses T1, human LILRB4. Kind of experiment: blocking of APOE binding to LILRB4; method not stated in the example.
For experiment [3], the target named is T1, human LILRB4. In words: blocking of Fibronectin binding to LILRB4; method not stated in the example.

B1: anti-LILRB4 antibody H7K3m5 (antibody, IgG1, V domains shown)
VH: EVQLVESGGGLVQPGGSLRLSCAASGFSLSSSYWISWVRQAPGKGLEWIGSIDSGSVGITYYATWVKGRFTISRDNSKNTLYLQMNSLRAEDTAVYYCARHGDNWALDLWGQGTLVTVSS
VL: DIQMTQSPSTLSASVGDRVTITCRASQSISSWLAWYQQKPGKAPKLLIYKASTLASGVPSRFSGSGSGTEFTLTISSLQPDDFATYYCQHGYIRGDLDNVFGGGTKVEIK
Take B1: in experiment [1], the Kd was 0.5 nM. For the same molecule, the values for the IC50 in experiment [2] and in experiment [3] were 0.18 nM and 0.78 nM, respectively.
